Assay results taken from patent publication US20080070838A1, “Growth Factor Treatment for Asthma” (University of Southampton, priority 2004, published 2008).
“Also recorded” adds a separate entry of the source.

Legend:
[1] = test system: primary bronchial epithelial cells from normal subjects; assay: Proliferation assay (methylene blue), primary bronchial epithelial cell cultures from normal controls; type: cell-based, human; conditions: 1.7 nM EGF for 24 hours vs serum free medium, FIG. 2a
Text: (§1) Bronchial brushings were taken from non-atopic, non-asthmatic control subjects and asthmatic subjects. Volunteers were characterised according to symptoms, pulmonary function and medication. Assessment of asthma severity was in accordance with the GINA guidelines on the diagnosis and management of asthma (Bousquet (2000) Global initiative for asthma (GINA) and its objectives.
(§2) Bronchial brushings were obtained by bronchoscopy using a fibreoptic bronchoscope (Olympus FB-20D, Tokyo, Japan) in accordance with standard published guidelines (Hurd S. Z. (1991) J. Allergy Clin. Immunol. 88, 808-814). Bronchial epithelial cells were obtained using a standard sterile single-sheathed nylon cytology brush (Olympus BC 9C-26101; Tokyo, Japan). […] Epithelial cell purity was assessed by performing differential cell counts on cytospins of the harvested cell suspension. […]
(§3) Cells were prepared in 24 well trays at a seeding density of a minimum of 4×10^4 cells/ml primary BECs. […] Absorbance of the eluant was determined using a Multiskan ascent plate reader after a 1:10 dilution with 1:1 ethanol:0.1% HCl to provide an absorbance within the linear range of the plate reader. Absorbance was read using a 630 nm filter and each sample was tested in duplicate. A standard curve was generated by direct cell counting to enable cell number to be related to methylene blue readings. […]

[2] = test system: primary bronchial epithelial cells from asthmatic subjects; assay: Proliferation assay (methylene blue), primary bronchial epithelial cell cultures from asthmatic subjects; type: cell-based, human; conditions: 1.7 nM EGF for 24 hours vs serum free medium, FIG. 2b
Text: as §1, §2, §3

B1: EGF: epithelial growth factor; wild-type mouse EGF produced in Pischia pastoris (protein)
chain: WQTGNCQPGPLERSERSGTCAGPAPFLVFSQGKSISRIDPDGTNHQQLVVDAGISADMDIHYKKERLYWVDVERQVLLRVFLNGTGLEKVCNVERKVSGLAIDWIDDEVLWVDQQNGVITVTDMTGKNSRVLLSSLKHPSNIAVDPIERLMFWSSEVTGSLHRAHLKGVDVKTLLETGGISVLTLDVLDKRLFWVQDSGEGSHAYIHSCDYEGGSVRLIRHQARHSLSSMAFFGDRIFYSVLKSKAIWIANKHTGKDTVRINLHPSFVTPGKLMVVHPRAQPRTEDAAKDPDPELLKQRGRPCRFGLCERDPKSHSSACAEGYTLSRDRKYCEDVNECATQNHGCTLGCENTPGSYHCTCPTGFVLLPDGKQCHELVSCPGNVSKCSHGCVLTSDGPRCICPAGSVLGRDGKTCTGCSSPDNGGCSQICLPLRPGSWECDCFPGYDLQSDRKSCAASGPQPLLLFANSQDIRHMHFDGTDYKVLLSRQMGMVFALDYDPVESKIYFAQTALKWIERANMDGSQRERLITEGVDTLEGLALDWIGRRIYWTDSGKSVVGGSDLSGKHHRIIIQERISRPRGIAVHPRARRLFWTDVGMSPRIESASLQGSDRVLIASSNLLEPSGITIDYLTDTLYWCDTKRSVIEMANLDGSKRRRLIQNDVGHPFSLAVFEDHLWVSDWAIPSVIRVNKRTGQNRVRLQGSMLKPSSLVVVHPLAKPGADPCLYRNGGCEHICQESLGTARCLCREGFVKAWDGKMCLPQDYPILSGENADLSKEVTSLSNSTQAEVPDDDGTESSTLVAEIMVSGMNYEDDCGPGGCGSHARCVSDGETAECQCLKGFARDGNLCSDIDECVLARSDCPSTSSRCINTEGGYVCRCSEGYEGDGISCFDIDECQRGAHNCGENAACTNTEGGYNCTCAGRPSSPGLSCPDSTAPSLLGEDGHHLDRNSYPGCPSSYDGYCLNGGVCMHIESLDSYTCNCVIGYSGDRCQTRDLRWWELRHAGYGQKHDIMVVAVCMVALVLLLVLGMWGTYYYRTRKQLSNPPKNPCDEPSGSVSSSGPNSSSGAAVASCPQPWFVVLEKHQDPKNGSLPADGTNGAVVDAGLSPSLQLGSVHLTSWRQKPHIDGMGTGQSCWIPPSSDRGPQEIEGNSHLPSYRPVGPEKLHSLQSANGSCHERAPDLPRQTEPVQ
B1 was tested, and the “effect on cell number (proliferation)” value [1] was “no effect on cell number; also recorded: unaffected” and the “effect on cell number (proliferation)” value [2] was “small but significant increase in cell number; also recorded: require exogenous EGF for maximal proliferation”.
